# Test results from article PMC6897951, “Unusual features of the c-ring of F1FO ATP synthases” (Scientific Reports, 2019).
# Target: the molecule itself
# Assay: crystal structure; in meso crystallisation (monooleoyl lipidic phase) of solubilised cF1FO, 27.4 mg/mL, 0.1 M MES pH 5.8, 1.4 M ammonium sulfate, 22 °C; space group I121; 2.3 Å
protein,measurement,value
"c-subunit of the spinach chloroplast F1FO ATP synthase (cF1FO), as the c14-ring (natural protein, Spinacia oleracea (spinach), UniProt P69447 1-81, looked up, ATP synthase subunit c of the chloroplast FO, Spinacia oleracea; Native protein from leaves; also called c1 subunit; c1 protomer; source: only the c14-ring crystallised; copies: 14) MNPLIAAASVIAAGLAVGLASIGPGVGQGTAAGQAVEGIARQPEAEGKIRGTLLLSLAFMEALTIYGLVVALALLFANPFV",stoichiometry N,14
